Data as given in paper doi:10.1101/803833.

Target: human SNAP-tagged GLP-1R (glucagon-like peptide-1 receptor) on HEK293-SNAP-GLP-1R cells (human) (UniProt P43220)
Experiment: FRET or BRET

Sequence of UniProt P43220 (P43220 24-463): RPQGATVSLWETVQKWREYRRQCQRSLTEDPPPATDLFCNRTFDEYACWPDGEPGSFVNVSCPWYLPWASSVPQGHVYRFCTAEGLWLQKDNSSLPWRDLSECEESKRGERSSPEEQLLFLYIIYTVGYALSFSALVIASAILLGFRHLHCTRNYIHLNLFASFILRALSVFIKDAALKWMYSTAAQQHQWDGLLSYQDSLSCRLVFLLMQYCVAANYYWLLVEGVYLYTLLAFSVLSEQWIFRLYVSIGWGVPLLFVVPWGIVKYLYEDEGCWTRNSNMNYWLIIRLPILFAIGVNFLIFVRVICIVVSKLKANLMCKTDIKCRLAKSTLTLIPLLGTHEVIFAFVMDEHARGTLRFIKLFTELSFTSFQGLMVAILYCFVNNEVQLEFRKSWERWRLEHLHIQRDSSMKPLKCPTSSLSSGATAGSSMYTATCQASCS

Substance | log Kd
exendin-4 (from UniProt P26349 48-87) (peptide) | -9.2
lixisenatide (peptide) | -9
